Laboratory results reported in article PMC3119452 (Structure (London, England : 1993), 2010).
“And” between values parts separate entries of the source, which are not always exact repeats. Identical values can stand only once. Like-named read-outs stand apart in the source and are kept apart here.

How the values were obtained:
[1] = molecular target: full-length HYL1 (Arabidopsis HYPONASTIC LEAVES1) (Arabidopsis) (UniProt O04492); assay: SEC
[2] = molecular target: full-length HYL1 (Arabidopsis HYPONASTIC LEAVES1) (Arabidopsis) (UniProt O04492); assay: SEC; remark: listed apart in the source
crystal structure = molecular target: the molecule itself; assay: crystal structure
GST-HYL1 fusion protein = molecular target: T1, GST-HYL1 fusion protein (Arabidopsis, UniProt O04492 1-419); assay: pull-down
T1 sequence (looked up): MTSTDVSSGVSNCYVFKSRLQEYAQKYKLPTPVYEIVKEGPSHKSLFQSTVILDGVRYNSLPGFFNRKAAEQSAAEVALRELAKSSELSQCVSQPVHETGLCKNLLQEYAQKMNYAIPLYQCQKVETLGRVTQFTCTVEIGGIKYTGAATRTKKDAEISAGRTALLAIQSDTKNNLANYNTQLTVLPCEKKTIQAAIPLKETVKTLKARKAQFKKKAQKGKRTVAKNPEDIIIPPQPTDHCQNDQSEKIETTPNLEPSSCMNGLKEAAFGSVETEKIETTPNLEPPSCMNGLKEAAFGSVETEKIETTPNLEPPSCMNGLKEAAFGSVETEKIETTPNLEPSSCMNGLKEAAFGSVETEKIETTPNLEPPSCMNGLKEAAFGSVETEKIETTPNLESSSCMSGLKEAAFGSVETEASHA

full-length HYL1 (Arabidopsis HYPONASTIC LEAVES1) (from UniProt O04492 1-419) (natural protein)
percent of the monomer peak shifted to the 110 kDa peak [1]: 90% | stoichiometry N [1]: 2 | stoichiometry N [2]: 8 and 10

B1: HYL1 dsRBD2 (HR2; residues 100-172) (domain or fragment, Arabidopsis, UniProt O04492 100-172, looked up)
chain: GLCKNLLQEYAQKMNYAIPLYQCQKVETLGRVTQFTCTVEIGGIKYTGAATRTKKDAEISAGRTALLAIQSDT
binding result (crystal structure): binds

B2: HR2 (residues 101-171) used in the pull-down (domain or fragment, Arabidopsis, UniProt O04492 101-171, looked up)
chain: LCKNLLQEYAQKMNYAIPLYQCQKVETLGRVTQFTCTVEIGGIKYTGAATRTKKDAEISAGRTALLAIQSD
binding result (GST-HYL1 fusion protein): binds

B3: HYL1 dsRBD1+2 (HR1+2; residues 15-172) (domain or fragment, Arabidopsis, UniProt O04492 15-172, looked up)
chain: VFKSRLQEYAQKYKLPTPVYEIVKEGPSHKSLFQSTVILDGVRYNSLPGFFNRKAAEQSAAEVALRELAKSSELSQCVSQPVHETGLCKNLLQEYAQKMNYAIPLYQCQKVETLGRVTQFTCTVEIGGIKYTGAATRTKKDAEISAGRTALLAIQSDT
binding result (GST-HYL1 fusion protein): binds
